Values of other authors in publication PMC2879707.

Biological target: F-actin (Oryctolagus cuniculus) (UniProt P68135)

In the case of espin (from UniProt Q63618), the Kd is listed as 150 nM.
